B1: N^α1-[(4S)-4-carboxy-4-(19-carboxynonadecanoylamino)butanoyl]-[Glu14,Arg17,Pro21,Pro27,Arg35]-h-amylin (peptide)
peptide: {C20 diacid-γGlu}-KCNTATCATQRLAEFLRHSSPNFGAIPSSTNVGSRTY-NH2
modifications: disulfide 2-7
SMILES: CC[C@H](C)[C@H](NC(=O)[C@H](C)NC(=O)CNC(=O)[C@H](Cc1ccccc1)NC(=O)[C@H](CC(N)=O)NC(=O)[C@@H]1CCCN1C(=O)[C@H](CO)NC(=O)[C@H](CO)NC(=O)[C@H](Cc1c[nH]cn1)NC(=O)[C@H](CCCNC(=N)N)NC(=O)[C@H](CC(C)C)NC(=O)[C@H](Cc1ccccc1)NC(=O)[C@H](CCC(=O)O)NC(=O)[C@H](C)NC(=O)[C@H](CC(C)C)NC(=O)[C@H](CCCNC(=N)N)NC(=O)[C@H](CCC(N)=O)NC(=O)[C@@H](NC(=O)[C@H](C)NC(=O)[C@@H]1CSSC[C@H](NC(=O)[C@H](CCCCN)NC(=O)CC[C@H](NC(=O)CCCCCCCCCCCCCCCCCCC(=O)O)C(=O)O)C(=O)N[C@@H](CC(N)=O)C(=O)N[C@@H]([C@@H](C)O)C(=O)N[C@@H](C)C(=O)N[C@@H]([C@@H](C)O)C(=O)N1)[C@@H](C)O)C(=O)N1CCC[C@H]1C(=O)N[C@@H](CO)C(=O)N[C@@H](CO)C(=O)N[C@H](C(=O)N[C@@H](CC(N)=O)C(=O)N[C@H](C(=O)NCC(=O)N[C@@H](CO)C(=O)N[C@@H](CCCNC(=N)N)C(=O)N[C@H](C(=O)N[C@@H](Cc1ccc(O)cc1)C(N)=O)[C@@H](C)O)C(C)C)[C@@H](C)O
notes: also called compound 16
B2: N^α1-[(4S)-4-carboxy-4-(19-carboxynonadecanoylamino)butanoyl]-[His14,Arg17,Pro21,Pro27,Glu35]-h-amylin (peptide)
peptide: {C20 diacid-γGlu}-KCNTATCATQRLAHFLRHSSPNFGAIPSSTNVGSETY-NH2
modifications: disulfide 2-7
SMILES: CC[C@H](C)[C@H](NC(=O)[C@H](C)NC(=O)CNC(=O)[C@H](Cc1ccccc1)NC(=O)[C@H](CC(N)=O)NC(=O)[C@@H]1CCCN1C(=O)[C@H](CO)NC(=O)[C@H](CO)NC(=O)[C@H](Cc1c[nH]cn1)NC(=O)[C@H](CCCNC(=N)N)NC(=O)[C@H](CC(C)C)NC(=O)[C@H](Cc1ccccc1)NC(=O)[C@H](Cc1c[nH]cn1)NC(=O)[C@H](C)NC(=O)[C@H](CC(C)C)NC(=O)[C@H](CCCNC(=N)N)NC(=O)[C@H](CCC(N)=O)NC(=O)[C@@H](NC(=O)[C@H](C)NC(=O)[C@@H]1CSSC[C@H](NC(=O)[C@H](CCCCN)NC(=O)CC[C@H](NC(=O)CCCCCCCCCCCCCCCCCCC(=O)O)C(=O)O)C(=O)N[C@@H](CC(N)=O)C(=O)N[C@@H]([C@@H](C)O)C(=O)N[C@@H](C)C(=O)N[C@@H]([C@@H](C)O)C(=O)N1)[C@@H](C)O)C(=O)N1CCC[C@H]1C(=O)N[C@@H](CO)C(=O)N[C@@H](CO)C(=O)N[C@H](C(=O)N[C@@H](CC(N)=O)C(=O)N[C@H](C(=O)NCC(=O)N[C@@H](CO)C(=O)N[C@@H](CCC(=O)O)C(=O)N[C@H](C(=O)N[C@@H](Cc1ccc(O)cc1)C(N)=O)[C@@H](C)O)C(C)C)[C@@H](C)O
notes: also called compound 30
B3: N^ε1-[2-[2-[2-[[(4S)-4-carboxy-4-(19-carboxynonadecanoylamino)butanoyl]amino]ethoxy]ethoxy]acetyl]-[Arg17,Pro21,Pro27,Glu35]-h-amylin (peptide)
peptide: K([AEEA-γGlu-C20 diacid])CNTATCATQRLANFLRHSSPNFGAIPSSTNVGSETY-NH2
modifications: disulfide 2-7; N-terminus assumed
SMILES: CC[C@H](C)[C@H](NC(=O)[C@H](C)NC(=O)CNC(=O)[C@H](Cc1ccccc1)NC(=O)[C@H](CC(N)=O)NC(=O)[C@@H]1CCCN1C(=O)[C@H](CO)NC(=O)[C@H](CO)NC(=O)[C@H](Cc1c[nH]cn1)NC(=O)[C@H](CCCNC(=N)N)NC(=O)[C@H](CC(C)C)NC(=O)[C@H](Cc1ccccc1)NC(=O)[C@H](CC(N)=O)NC(=O)[C@H](C)NC(=O)[C@H](CC(C)C)NC(=O)[C@H](CCCNC(=N)N)NC(=O)[C@H](CCC(N)=O)NC(=O)[C@@H](NC(=O)[C@H](C)NC(=O)[C@@H]1CSSC[C@H](NC(=O)[C@@H](N)CCCCNC(=O)COCCOCCNC(=O)CC[C@H](NC(=O)CCCCCCCCCCCCCCCCCCC(=O)O)C(=O)O)C(=O)N[C@@H](CC(N)=O)C(=O)N[C@@H]([C@@H](C)O)C(=O)N[C@@H](C)C(=O)N[C@@H]([C@@H](C)O)C(=O)N1)[C@@H](C)O)C(=O)N1CCC[C@H]1C(=O)N[C@@H](CO)C(=O)N[C@@H](CO)C(=O)N[C@H](C(=O)N[C@@H](CC(N)=O)C(=O)N[C@H](C(=O)NCC(=O)N[C@@H](CO)C(=O)N[C@@H](CCC(=O)O)C(=O)N[C@H](C(=O)N[C@@H](Cc1ccc(O)cc1)C(N)=O)[C@@H](C)O)C(C)C)[C@@H](C)O
notes: also called compound 26
B4: N^ε1-[2-[2-[2-[[2-[2-[2-[[(4S)-4-carboxy-4-(19-carboxynonadecanoylamino)butanoyl]amino]ethoxy]ethoxy]acetyl]amino]ethoxy]ethoxy]acetyl]-[Arg17,Pro21,Pro27,Glu35 … (peptide)
peptide: K([AEEA-AEEA-γGlu-C20 diacid])CNTATCATQRLANFLRHSSPNFGAIPSSTNVGSETY-NH2
modifications: disulfide 2-7; N-terminus assumed
SMILES: CC[C@H](C)[C@H](NC(=O)[C@H](C)NC(=O)CNC(=O)[C@H](Cc1ccccc1)NC(=O)[C@H](CC(N)=O)NC(=O)[C@@H]1CCCN1C(=O)[C@H](CO)NC(=O)[C@H](CO)NC(=O)[C@H](Cc1c[nH]cn1)NC(=O)[C@H](CCCNC(=N)N)NC(=O)[C@H](CC(C)C)NC(=O)[C@H](Cc1ccccc1)NC(=O)[C@H](CC(N)=O)NC(=O)[C@H](C)NC(=O)[C@H](CC(C)C)NC(=O)[C@H](CCCNC(=N)N)NC(=O)[C@H](CCC(N)=O)NC(=O)[C@@H](NC(=O)[C@H](C)NC(=O)[C@@H]1CSSC[C@H](NC(=O)[C@@H](N)CCCCNC(=O)COCCOCCNC(=O)COCCOCCNC(=O)CC[C@H](NC(=O)CCCCCCCCCCCCCCCCCCC(=O)O)C(=O)O)C(=O)N[C@@H](CC(N)=O)C(=O)N[C@@H]([C@@H](C)O)C(=O)N[C@@H](C)C(=O)N[C@@H]([C@@H](C)O)C(=O)N1)[C@@H](C)O)C(=O)N1CCC[C@H]1C(=O)N[C@@H](CO)C(=O)N[C@@H](CO)C(=O)N[C@H](C(=O)N[C@@H](CC(N)=O)C(=O)N[C@H](C(=O)NCC(=O)N[C@@H](CO)C(=O)N[C@@H](CCC(=O)O)C(=O)N[C@H](C(=O)N[C@@H](Cc1ccc(O)cc1)C(N)=O)[C@@H](C)O)C(C)C)[C@@H](C)O
notes: also called compound 25
B5: N^α1-[(4S)-4-carboxy-4-(19-carboxynonadecanoylamino)butanoyl]-[Glu14,Arg17,Pro21,Pro27,Pro31]-h-amylin (peptide)
peptide: {C20 diacid-γGlu}-KCNTATCATQRLAEFLRHSSPNFGAIPSSTPVGSNTY-NH2
modifications: disulfide 2-7
SMILES: CC[C@H](C)[C@H](NC(=O)[C@H](C)NC(=O)CNC(=O)[C@H](Cc1ccccc1)NC(=O)[C@H](CC(N)=O)NC(=O)[C@@H]1CCCN1C(=O)[C@H](CO)NC(=O)[C@H](CO)NC(=O)[C@H](Cc1c[nH]cn1)NC(=O)[C@H](CCCNC(=N)N)NC(=O)[C@H](CC(C)C)NC(=O)[C@H](Cc1ccccc1)NC(=O)[C@H](CCC(=O)O)NC(=O)[C@H](C)NC(=O)[C@H](CC(C)C)NC(=O)[C@H](CCCNC(=N)N)NC(=O)[C@H](CCC(N)=O)NC(=O)[C@@H](NC(=O)[C@H](C)NC(=O)[C@@H]1CSSC[C@H](NC(=O)[C@H](CCCCN)NC(=O)CC[C@H](NC(=O)CCCCCCCCCCCCCCCCCCC(=O)O)C(=O)O)C(=O)N[C@@H](CC(N)=O)C(=O)N[C@@H]([C@@H](C)O)C(=O)N[C@@H](C)C(=O)N[C@@H]([C@@H](C)O)C(=O)N1)[C@@H](C)O)C(=O)N1CCC[C@H]1C(=O)N[C@@H](CO)C(=O)N[C@@H](CO)C(=O)N[C@H](C(=O)N1CCC[C@H]1C(=O)N[C@H](C(=O)NCC(=O)N[C@@H](CO)C(=O)N[C@@H](CC(N)=O)C(=O)N[C@H](C(=O)N[C@@H](Cc1ccc(O)cc1)C(N)=O)[C@@H](C)O)C(C)C)[C@@H](C)O
notes: also called compound 31

Numbered stars: 1 amine (or outer) side, 2 acyl side, 3 side chain; on linkers, the order of the positions; unused ones are H or OH. Bridge positions count the residues as written; N and C are the ends. Side chains are listed from the residue outwards. Ends that are not written are not given here. * marks the point of attachment. C20 diacid = O=C(O)CCCCCCCCCCCCCCCCCCC(=O)*; γGlu = O=C(O)[C@H](CCC(=O)[*:2])N[*:1]; AEEA = NCCOCCOCC(=O)O

This assay deals with T1, human calcitonin receptor (human, UniProt P30988 25-474).
T1 construct: whole, on cells; Used as cell membranes prepared from the transfected BHK cells (Assay VII), not as intact cells; also called hCTR; hCT
T1 sequence (looked up): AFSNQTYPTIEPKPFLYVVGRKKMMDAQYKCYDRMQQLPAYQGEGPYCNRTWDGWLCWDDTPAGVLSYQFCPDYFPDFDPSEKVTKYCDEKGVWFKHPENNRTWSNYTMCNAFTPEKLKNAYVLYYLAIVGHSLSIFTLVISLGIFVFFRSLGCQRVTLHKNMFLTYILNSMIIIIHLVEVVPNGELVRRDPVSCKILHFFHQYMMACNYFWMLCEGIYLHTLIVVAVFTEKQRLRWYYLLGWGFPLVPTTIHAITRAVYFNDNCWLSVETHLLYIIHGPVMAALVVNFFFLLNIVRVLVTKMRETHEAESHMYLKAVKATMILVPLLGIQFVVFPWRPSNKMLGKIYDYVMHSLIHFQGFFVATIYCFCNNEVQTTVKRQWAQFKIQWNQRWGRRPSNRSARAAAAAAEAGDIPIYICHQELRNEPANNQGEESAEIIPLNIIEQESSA
As to the kind of experiment: SPA competition against 125I-calcitonin, membranes with human calcitonin receptor (Assay VII). As to the method:
Membranes were prepared in the following way; the cells were rinsed with PBS and incubated with Versene for approximately 5 min before harvesting. The cells were flushed with PBS and the cell-suspension was centrifuged for 5 min at 1000 rpm. Cells were homogenized (Ultrathurrax) in a buffer containing 20 mM Na-HEPES and 10 mM EDTA (pH 7.4) and centrifuged at 20.000 rpm for 15 min. The resulting pellet was resuspended, homogenized and centrifuged (20.000 rpm, 15 min) in a buffer containing 20 mM Na-HEPES and 0.1 mM EDTA (pH 7.4, buffer 2). The resulting pellet was resuspended in buffer 2 and protein concentration was measured (BCA protein Assay, Pierce). The homogenate was kept cold during the whole procedure. The membranes were kept at −80° C. until use. Assay was performed in a 384 well Optiplate (PerkinElmer) in a total volume of 40 ul. Membranes were mixed with SPA beads. Final concentration of membranes 35 ng/μL final and Final concentration of SPA beads was 0.05 mg/well. Test-compounds were dissolved in DMSO and further diluted in assay buffer (50 mM Hepes, pH 7.4, 1 mM CaCl2, 5 mM MgCl₂, 0.1% OA and 0.02% Tween20). […] The final mixture was incubated for 120 min with shaking at 400 rpm at 25° C. prior to centrifugation (1500 rpm, 10 min). Samples were analyzed on TopCounter™ (Packard). The […] was calculated using (one site binding competition analysis) GraphPad Prism5 as a measure of receptor affinity.
Turning to B1, the IC50 was 17.1 nM.

Regarding B2, the half-inhibitory concentration (IC50) was 21.6 nM.

For B3, the IC50 is 25.3 nM.

Take B4: the IC50 is 43.4 nM.

With B5, the IC50 was found to be 3.26 nM.

These data come from patent US20140087995A1 (published 2014).
